In assay [1] the target is T1, Mouse LAG3 (mouse, UniProt Q61790).
T1 construct: recombinant, His-tagged, coated on a Ni-NTA plate; also called mouse LAG3-His Tag recombinant protein
T1 sequence (antigen, looked up): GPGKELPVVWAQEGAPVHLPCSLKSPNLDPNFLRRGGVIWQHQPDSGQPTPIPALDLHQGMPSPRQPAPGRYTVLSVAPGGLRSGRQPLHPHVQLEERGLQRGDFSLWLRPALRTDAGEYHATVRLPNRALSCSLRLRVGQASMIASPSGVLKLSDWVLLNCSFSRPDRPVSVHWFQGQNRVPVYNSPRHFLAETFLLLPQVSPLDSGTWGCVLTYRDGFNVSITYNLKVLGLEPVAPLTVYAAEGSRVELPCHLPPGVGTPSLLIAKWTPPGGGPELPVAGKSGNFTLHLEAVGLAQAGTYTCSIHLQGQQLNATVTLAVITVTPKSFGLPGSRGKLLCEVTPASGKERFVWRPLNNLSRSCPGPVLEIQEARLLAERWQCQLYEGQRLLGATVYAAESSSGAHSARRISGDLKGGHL
Briefly: ELISA: LAG3-His coated at 2 µg/mL on a Ni-NTA plate, antibody (IgG4) at 2 µg/mL, anti-human Fc-HRP, OD at 450nm. A general note: ELISA stands for enzyme-linked immunosorbent assay.

Assay [2] concerns the target T2, Recombinant human LAG3-His (Sino Biological; catalogue No. 16498-H08H) (human, UniProt P18627 23-450).
T2 construct: also called human LAG3 His-tag protein; CD223
T2 sequence: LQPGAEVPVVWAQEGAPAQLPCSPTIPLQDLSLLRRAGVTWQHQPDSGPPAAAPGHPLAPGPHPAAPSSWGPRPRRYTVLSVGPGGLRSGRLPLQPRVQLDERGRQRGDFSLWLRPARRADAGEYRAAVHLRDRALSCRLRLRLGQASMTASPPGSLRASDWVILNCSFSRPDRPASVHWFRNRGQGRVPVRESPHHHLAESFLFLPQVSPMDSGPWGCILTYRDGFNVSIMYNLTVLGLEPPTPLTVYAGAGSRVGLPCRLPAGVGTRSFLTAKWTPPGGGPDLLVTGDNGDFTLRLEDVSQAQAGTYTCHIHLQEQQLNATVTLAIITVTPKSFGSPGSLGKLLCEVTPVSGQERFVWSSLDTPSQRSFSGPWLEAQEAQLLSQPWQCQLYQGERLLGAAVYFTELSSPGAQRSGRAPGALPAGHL
As to the kind of experiment: ELISA: antibody coated at 5 µg/mL, soluble human LAG3-His titrated (x-axis: Human LAG3, µg/ml), OD at 450nm.

Assay [3] deals with T2, Recombinant human LAG3-His (Sino …). As to the kind of experiment: SPR (Biacore): antibody captured on anti-human Fc, human LAG3-His in solution.
The target in assay [4] is T3, recombinant human LAG3-Fc Tag protein (Sino Biological; catalogue no. 16498-H05H) (human, UniProt P18627).
T3 construct: recombinant, soluble
T3 sequence (fusion chain, looked up): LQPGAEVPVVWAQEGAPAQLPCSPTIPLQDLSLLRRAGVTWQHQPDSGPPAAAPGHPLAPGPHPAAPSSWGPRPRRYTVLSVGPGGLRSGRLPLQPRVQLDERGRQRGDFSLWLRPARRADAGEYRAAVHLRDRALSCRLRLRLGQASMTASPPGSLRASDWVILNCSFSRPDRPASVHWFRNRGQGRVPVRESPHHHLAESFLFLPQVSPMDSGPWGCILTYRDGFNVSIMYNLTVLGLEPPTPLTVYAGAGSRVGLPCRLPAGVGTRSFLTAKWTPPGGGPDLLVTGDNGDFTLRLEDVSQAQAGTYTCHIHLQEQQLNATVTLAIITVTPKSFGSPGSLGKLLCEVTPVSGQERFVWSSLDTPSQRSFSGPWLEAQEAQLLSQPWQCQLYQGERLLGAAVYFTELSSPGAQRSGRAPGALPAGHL
Briefly: ELISA: antibody coated at 5 µg/mL captures human LAG3-Fc at 2 µg/mL; how the black bars (LAG3 binding) were detected is not told.

The target of assay [5] is T1, Mouse LAG3. As to the kind of experiment: […], antibody ([…]) at 2 µg/mL, […].
Assay [6] deals with T4, human LAG3 on LAG3/NFAT-Luc reporter Jurkat cells (human, UniProt P18627).
T4 construct: on the surface of transfected Jurkat cells; also called human LAG3 expressed on Jurkat cells (BPS Biosciences; catalogue No. 71278)
T4 sequence (antigen, looked up): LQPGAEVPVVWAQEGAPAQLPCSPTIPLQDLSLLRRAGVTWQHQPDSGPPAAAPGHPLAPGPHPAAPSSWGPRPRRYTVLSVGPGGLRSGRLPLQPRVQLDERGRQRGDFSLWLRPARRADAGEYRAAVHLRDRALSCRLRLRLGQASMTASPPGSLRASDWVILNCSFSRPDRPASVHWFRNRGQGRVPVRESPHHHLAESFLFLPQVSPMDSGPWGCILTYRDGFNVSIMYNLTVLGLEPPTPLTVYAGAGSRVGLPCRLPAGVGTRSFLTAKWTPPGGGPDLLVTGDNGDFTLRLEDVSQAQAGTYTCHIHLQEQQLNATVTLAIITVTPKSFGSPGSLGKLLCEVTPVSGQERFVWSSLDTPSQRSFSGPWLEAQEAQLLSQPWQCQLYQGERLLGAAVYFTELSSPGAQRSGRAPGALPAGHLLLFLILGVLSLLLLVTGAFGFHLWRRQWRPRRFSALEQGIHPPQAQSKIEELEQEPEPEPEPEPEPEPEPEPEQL
Briefly: Flow cytometry on human LAG3/NFAT-Luc Jurkat cells, ΔMFI = LAG3 Jurkat minus wild-type Jurkat, AF647 anti-human IgG.

Assay [7] concerns the target T2, Recombinant human LAG3-His (Sino …). Briefly: SPR (Biacore), antibody captured by anti-human Fc, human LAG3-His as analyte, 1:1 model. For orientation: In SPR one partner is held on a chip, and binding of the other changes the refractive index at the surface.

The text below walks through data of patent US20230147852A1 (SORRENTO THERAPEUTICS, published 2023).

B1: 5C8 (antibody, V domains shown)
VH: QVQLVQSGAEVKKPGASVKVSCKASGYTFTSYGISWVRQAPGQGLEWMGWISAYNGNTNYAQKLQGRVTMTTDTSTSTAYMELRSLRSEDTAVYYCARDSGYDFEDWFDPWGQGTLVTVSS
VL: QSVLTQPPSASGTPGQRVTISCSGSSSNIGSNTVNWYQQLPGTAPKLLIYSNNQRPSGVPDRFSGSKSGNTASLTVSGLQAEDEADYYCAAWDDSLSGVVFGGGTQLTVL
notes: also called anti-LAG3 antibody 5C8
On to B1, for which the binding result in assay [1] is reported as “no binding (tested: 2 µg/mL)”. The EC50 (read off the curve) – broadly, the concentration needed to bring the measured effect to its halfway point – in assay [2] was about 0.02 µg/mL.

B2: 8D9 (antibody, V domains shown)
VH: QVQLVQSGAEVRKPGSSVKVSCKASGGTFSNYAFSWVRQAPGLGLEWLGAIIPEFDTANYAQKFKDRVTITADDSTTTVYMELSSLRSEDTAVYYCASGMWDYYGSGSSIDYWGQGTLVTVSS
VL: QSVLTQPPSASGTPGQRVTISCSGSNSDIGRNPVNWYHQFPGTAPKLLIFSNSHRPSGVPDRFSGSKSGTSASLAIGGLQSDDEADYYCAAWSDSLNGYVFGTGTKLTVL
notes: also called anti-LAG3 antibody 8D9; Clone 8D9
On to B2, for which the binding result in assay [3] was “binds”; in assay [4] it was “binds”; in assay [5], “no binding (tested: 2 µg/mL)”; in assay [6], “binds”.

B3: 1C5-3A6 (antibody, V domains shown)
VH: QVQLVQSGAEVKKPGASVKVSCKASGYTLTDYYIHWVRQAPGQGLEWVGWINPNSGGTNYEQKFQGRVTMTWDTSISTAYMELSRLTSDDTAVYYCAREGWSNDWYVGYYFDYWGQGTLVTVSS
VL: DIQMTQSPLSLSASVGDRVSITCRASQYIGTSLNWYEQKPGNSPKLLITGASRLQSGVPSRFSGSGSGTDFTLTINTLQPDDLATYYCHQSYDDPPTFGQGTKLEIK
notes: also called anti-LAG3 antibody 1C5-3A6
Regarding B3, in assay [7], the Kd – broadly, the concentration at which binding is half-saturated – stood at 0.0643 nM. The binding result in assay [5] is given as “binds”. The “EC50 (read off the curve)” value in assay [2] was about 0.07 µg/mL.
